The target in this experiment is T1, ∆NTD-ClpC1 (ClpC1 truncation mutant lacking N-terminal residues M1-Y145) (Mycobacterium tuberculosis H37Rv, UniProt P9WPC9 146-848).
T1 construct: ClpC1, M. tuberculosis H37Rv, Rv3596c, lacking N-terminal residues M1-Y145 (begins at residue 146); also called ∆NTD-ClpC1 truncation; not shown: His6-SUMO, N-terminal, cleaved
T1 sequence: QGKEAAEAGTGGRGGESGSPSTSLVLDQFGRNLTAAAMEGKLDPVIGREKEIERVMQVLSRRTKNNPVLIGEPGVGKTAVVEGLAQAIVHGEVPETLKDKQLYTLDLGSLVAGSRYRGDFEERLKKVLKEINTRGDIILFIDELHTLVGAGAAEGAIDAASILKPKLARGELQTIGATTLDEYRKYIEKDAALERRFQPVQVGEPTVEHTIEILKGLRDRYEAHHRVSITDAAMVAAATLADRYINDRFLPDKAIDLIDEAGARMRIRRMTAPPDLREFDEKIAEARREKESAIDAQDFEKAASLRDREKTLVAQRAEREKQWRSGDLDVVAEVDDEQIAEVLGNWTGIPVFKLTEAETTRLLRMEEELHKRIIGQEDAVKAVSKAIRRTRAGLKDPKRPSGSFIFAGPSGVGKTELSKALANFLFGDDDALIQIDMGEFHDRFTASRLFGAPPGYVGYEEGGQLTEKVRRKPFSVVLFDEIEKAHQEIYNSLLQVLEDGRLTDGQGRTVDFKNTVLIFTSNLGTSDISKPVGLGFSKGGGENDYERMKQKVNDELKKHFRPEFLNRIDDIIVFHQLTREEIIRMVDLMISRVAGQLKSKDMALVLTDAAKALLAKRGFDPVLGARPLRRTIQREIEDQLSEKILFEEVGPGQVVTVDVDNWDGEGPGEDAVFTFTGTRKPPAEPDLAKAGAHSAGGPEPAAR
Description: pull-down. The note with it: both partners purified.

B1: His6-SUMO-ClpS (Mycobacterium tuberculosis ClpS adaptor protein, His6-SUMO fusion) (natural protein)
chain: MAVVSAPAKPGTTWQRESAPVDVTDRAWVTIVWDDPVNLMSYVTYVFQKLFGYSEPHATKLMLQVHNEGKAVVSAGSRESMEVDVSKLHAAGLWATMQQDR
notes: also called His6-ClpS; His6-tagged ClpS; not shown: His6, N-terminal, kept; SUMO, N-terminal, kept
With B1, the binding result is reported as “binds”.

For the origin of these results see article PMC6274998, “Mycobacterium tuberculosis ClpC1 N-Terminal Domain Is Dispensable for Adaptor Protein-Dependent Allosteric Regulation” (International Journal of Molecular Sciences, 2018).
